Assay results as given in paper PMC6211539, “Structures of collagen IV globular domains: insight into associated pathologies, folding and network assembly” (IUCrJ, 2018).
“And” between values parts separate entries of the source, which are not always exact repeats. Identical values can stand only once. Values belong to the molecule of their own block, whether it stands above or below them.

B1: noncollagenous C-terminal domain (NC1) of the collagen IV α2 chain, recombinant, from insect cells (domain or fragment, human)
chain: SVSIGYLLVKHSQTDQEPMCPVGMNKLWSGYSLLYFEGQEKAHNQDLGLAGSCLARFSTMPFLYCNPGDVCYYASRNDKSYWLSTTAPLPMMPVAEDEIKPYISRCSVCEAPAIAIAVHSQDVSIPHCPAGWRSLWIGYSFLMHTAAGDEGGGQSLVSPGSCLEDFRATPFIECNGGRGTCHYYANKYSFWLTTIPEQSFQGSPSADTLKAGLIRTHISRCQVCMKNL
notes: collagen IV α2 chain, human, NC1 domain; The construct has an N-terminal BM40 secretion peptide followed by the FLAG tag; Used for the α121NC1 crystals (expressed in insect cells); also called α2NC1; α2(IV)NC1
B2: noncollagenous C-terminal domain (NC1) of the collagen IV α2 chain, recombinant, from HEK293 cells (domain or fragment, human)
chain: B1 chain
notes: collagen IV α2 chain, human, NC1 domain; N-terminally FLAG-tagged fusion protein; Used for the α2NC1 crystals; also called α2NC1; α2NC1_(homo); source: HEK293 cells, purified as described elsewhere (Sado et al., 1998)
B3: noncollagenous C-terminal domain (NC1) of the collagen IV α1 chain, recombinant (domain or fragment, human)
chain: SVDHGFLVTRHSQTIDDPQCPSGTKILYHGYSLLYVQGNERAHGQDLGTAGSCLRKFSTMPFLFCNINNVCNFASRNDYSYWLSTPEPMPMSMAPITGENIRPFISRCAVCEAPAMVMAVHSQTIQIPPCPSGWSSLWIGYSFVMHTSAGAEGSGQALASPGSCLEEFRSAPFIECHGRGTCNYYANAYSFWLATIERSEMFKKPTPSTLKAGELRTHVSRCQVCMRRT
notes: collagen IV α1 chain, human, NC1 domain (about 230 C-terminal residues); The construct has an N-terminal BM40 secretion peptide followed by the FLAG tag; also called α1NC1; α1(IV)NC1
B4: noncollagenous C-terminal domain (NC1) of the collagen IV α5 chain, recombinant (domain or fragment, human)
chain: SVAHGFLITRHSQTTDAPQCPQGTLQVYEGFSLLYVQGNKRAHGQDLGTAGSCLRRFSTMPFMFCNINNVCNFASRNDYSYWLSTPEPMPMSMQPLKGQSIQPFISRCAVCEAPAVVIAVHSQTIQIPHCPQGWDSLWIGYSFMMHTSAGAEGSGQALASPGSCLEEFRSAPFIECHGRGTCNYYANSYSFWLATVDVSDMFSKPQSETLKAGDLRTRISRCQVCMKRT
notes: collagen IV α5 chain, human, NC1 domain; The construct has an N-terminal BM40 secretion peptide followed by the FLAG tag; also called α5NC1; α5(IV)NC1

Tests used:
[1] = target: noncollagenous C-terminal domain (NC1) of the collagen IV α4 chain, recombinant (human) (UniProt P53420); assay: crystal structure; α4NC1 alone; sitting drop, 21°C; protein in 50 mM Tris-HCl pH 7.4, 0.15 M NaCl; 6% PEG 3350, 0.2 M Na acetate, 0.1 M MES pH 6.5
[2] = target: noncollagenous C-terminal domain (NC1) of the collagen IV α3 chain, recombinant (human) (UniProt Q01955); assay: SPR; Biacore T100; α3NC1 or α5NC1 amine-coupled to CM5 chip (~1000 RU); α3NC1 or α5NC1 flowed over; 25°C; 10 mM Tris-HCl pH 7.4, 0.15 M NaCl, 3 mM EDTA, 0.005% surfactant P20; self-association
[3] = target: noncollagenous C-terminal domain (NC1) of the collagen IV α3 chain, recombinant (human) (UniProt Q01955); assay: crystal structure; α3NC1 alone; sitting drop, 21°C; protein in 50 mM Tris-HCl pH 7.4, 0.5 M NaCl; 16% PEG 3350, 0.2 M MgCl2, 0.1 M bis-tris propane pH 7.5
[4] = target: B3; assay: crystal structure; 2:1 mixture (in terms of mass) of α1NC1 and α2NC1; sitting drop, 21°C; protein in 50 mM Tris-HCl pH 7.4, 0.15 M NaCl; 10% PEG 8000, 0.2 M Mg acetate; conditions: both partners purified
[5] = target: the molecule itself; assay: crystal structure; α2NC1 (from HEK293 cells) alone; sitting drop, 21°C; protein in 50 mM Tris-HCl pH 7.4, 0.15 M NaCl; 22% polyvinylpyrrolidone K15, 0.1 M Na2SO4, 0.1 M MES pH 6.5
[6] = target: B1; assay: crystal structure; 2:1 mixture (in terms of mass) of α1NC1 and α2NC1; sitting drop, 21°C; protein in 50 mM Tris-HCl pH 7.4, 0.15 M NaCl; 10% PEG 8000, 0.2 M Mg acetate; conditions: both partners purified
[7] = target: the molecule itself; assay: crystal structure; α1NC1 alone; sitting drop, 21°C; protein in 50 mM Tris-HCl pH 7.4, 0.15 M NaCl; 1.4 M Li2SO4, 0.1 M MES pH 6.5
[8] = target: the molecule itself; assay: crystal structure; crystals from a 1:1:1 mixture of α3NC1, α4NC1 and α5NC1; sitting drop, 21°C; protein in 50 mM Tris-HCl pH 7.4, 0.15 M NaCl; 20% PEG 8000, 0.2 M NaCl, 0.1 M CAPS pH 10.5
[9] = target: the molecule itself; assay: SPR; Biacore T100; α3NC1 or α5NC1 amine-coupled to CM5 chip (~1000 RU); α3NC1 or α5NC1 flowed over; 25°C; 10 mM Tris-HCl pH 7.4, 0.15 M NaCl, 3 mM EDTA, 0.005% surfactant P20; self-association

- stoichiometry N [1]: 12 subunits
Molecule: noncollagenous C-terminal domain (NC1) of the collagen IV α4 chain, recombinant (from UniProt P53420 1461-1690) (domain or fragment)

- Kd [2]: 1.71 µM
- stoichiometry N [3]: 6 subunits
Molecule: noncollagenous C-terminal domain (NC1) of the collagen IV α3 chain, recombinant (from UniProt Q01955 1441-1670) (domain or fragment)

Molecule: B1
- binding result [4]: binds

Molecule: B2
- stoichiometry N [5]: 8 subunits and 4 subunits

Molecule: B3
- stoichiometry N [6]: 2 α1NC1 per α2NC1
- stoichiometry N [7]: 6 subunits

Molecule: B4
- stoichiometry N [8]: 6 subunits
- Kd [9]: 4.92 µM
